{
  "source": "patent US6066502",
  "molecules": {"B1": {"name": "recombinant membrane-bound human ECE (complete human ECE expressed from pcDNA3neo in mammalian cells, colony 38) (enzyme)", "chain": "MSTYKRATLDEEDLVDSLSEGDAYPNGLQVNFHSPRSGQRCWAARTQVEKRLVVLVVLLAAGLVACLAALGIQYQTRSPSVCLSEACVSVTSSILSSMDPTVDPCHDFFSYACGGWIKANPVPDGHSRWGTFSNLWEHNQAIIKHLLENSTASVSEAERKAQVYYRACMNETRIEELRAKPLMELIERLGGWNITGPWAKDNFQDTLQVVTAHYRTSPFFSVYVSADSKNSNSNVIQVDQSGLGLPSRDYYLNKTENEKVLTGYLNYMVQLGKLLGGGDEEAIRPQMQQILDFETALANITIPQEKRRDEELIYHKVTAAELQTLAPAINWLPFLNTIFYPVEINESEPIVVYDKEYLEQISTLINTTDRCLLNNYMIWNLVRKTSSFLDQRFQDADEKFMEVMYGTKKTCLPRWKFCVSDTENNLGFALGPMFVKATFAEDSKSIATEIILEIKKAFEESLSTLKWMDEETRKSAKEKADAIYNMIGYPNFIMDPKELDKVFNDYTAVPDLYFENAMRFFNFSWRVTADQLRKAPNRDQWSMTPPMVNAYYSPTKNEIVFPAGILQAPFYTRSSPKALNFGGIGVVVGHELTHAFDDQGREYDKDGNLRPWWKNSSVEAFKRQTECMVEQYSNYSVNGEPVNGRHTLGENIADNGGLKAAYRAYQNWVKKNGAEHSLPTLGLTNNQLFFLGFAQVWCSVRTPESSHEGLITDPHSPSRFRVIGSLSNSKEFSEHFRCPPGSPMNPPHKCEVW"}},
  "key": {"[1]": {"molecular_target": "human big endothelin-1 (human) (UniProt P05305)", "sequence (P05305 53-90 limits assumed)": "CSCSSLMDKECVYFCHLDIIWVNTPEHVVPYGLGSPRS"}, "[2]": {"molecular_target": "human big endothelin-1 (human) (UniProt P05305)", "remark": "listed apart in the source"}, "[3]": {"molecular_target": "human big endothelin-1 (human) (UniProt P05305)", "remark": "listed apart in the source"}},
  "data": [
    {"molecule": "secreted human ECE (extracellular domain of human ECE fused to the signal peptide of human t-PA) (enzyme)", "values": [
      {"measurement": "volume-based activity of the secreted ECE (µunits/ml of cell culture medium)", "setting": "[1]", "value": "< 10"}
    ]},
    {"molecule": "endothelin converting enzyme (ECE-1) purified from FBHE bovine endothelial cells", "values": [
      {"measurement": "Spec. activity [µU/mg]", "setting": "[2]", "value": 15100, "unit": "µU/mg"}
    ]},
    {"molecule": "B1", "values": [
      {"measurement": "Spec. activity (µU/mg protein) (µU/mg protein)", "setting": "[3]", "value": 12000}
    ]}
  ]
}
